From paper doi:10.1101/2025.05.27.656346

Biological target: β-gal 4-domain fragment 1-725 (E. coli)
Assay: negative-stain EM

Substance: β-gal 4-domain fragment 1-725 (domain or fragment)
- stoichiometry N: 4
